According to patent US20240368664A1, “LIVE YEAST BIOSENSORS AND METHODS OF USE THEREOF” (priority 2021, published 2024):

What was measured:
[1] = target: T1, Schizosaccharomyces japonicus pheromone GPCR SjSte2 (Schizosaccharomyces japonicus); experiment: cell-based or functional assay
T1 sequence: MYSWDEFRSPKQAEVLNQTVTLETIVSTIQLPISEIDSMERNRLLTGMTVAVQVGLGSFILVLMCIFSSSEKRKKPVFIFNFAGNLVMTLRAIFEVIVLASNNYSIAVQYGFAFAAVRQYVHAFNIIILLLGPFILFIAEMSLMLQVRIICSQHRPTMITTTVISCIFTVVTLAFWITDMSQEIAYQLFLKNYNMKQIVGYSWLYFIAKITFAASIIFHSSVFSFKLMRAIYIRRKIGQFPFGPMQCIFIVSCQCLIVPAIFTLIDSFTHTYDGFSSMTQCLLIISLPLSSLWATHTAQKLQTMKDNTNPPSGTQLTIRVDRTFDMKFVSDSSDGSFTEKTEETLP

[2] = target: T2, Scheffersomyces stipitis pheromone GPCR SsSte2 (Scheffersomyces stipitis); experiment: cell-based or functional assay
T2 sequence: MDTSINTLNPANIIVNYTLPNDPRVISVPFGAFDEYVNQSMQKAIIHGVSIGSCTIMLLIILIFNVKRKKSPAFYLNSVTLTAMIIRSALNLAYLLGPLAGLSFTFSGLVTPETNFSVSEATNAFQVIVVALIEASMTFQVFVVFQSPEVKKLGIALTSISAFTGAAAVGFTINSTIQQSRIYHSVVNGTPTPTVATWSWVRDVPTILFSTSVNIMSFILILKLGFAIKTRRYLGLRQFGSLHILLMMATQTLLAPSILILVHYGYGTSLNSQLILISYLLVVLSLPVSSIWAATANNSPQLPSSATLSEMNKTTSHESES

Row | Substance | apparent EC50, ymTurquoise2, strain co-expressing SjSxa2 [1] [µM] | EC50, mCherry, yMJ194 [2] [nM] | EC50, mCherry, yTC453 [2] [nM] | maximal activation, mCherry, yMJ194 [2] [A.U.] | maximal activation, mCherry, yTC453 [2] [A.U.]
1 | S. japonicus pheromone peptide (SjPep) | 100 |  |  |  | 
2 | Scheffersomyces stipitis cognate peptide (SsPep) |  | 12 | 7 | 320 | 5300
